6 molecules from patent publication US9121022B2, “Method for controlling herbicide-resistant plants” (priority 2010, dated 2015) can be followed below.

Data set [1] deals with Glyphosate-resistant Palmer amaranth plants having 49 or 63 copies EPSPS. As to the kind of experiment: salicylic acid pretreatment before dsRNA and glyphosate (Example 15). The format is in vivo. The following applies: 15 millimolar SA 1, 5, or 24 hours before dsRNA; 7 days after glyphosate. The method, then:
Salicylic acid (SA) induces virus resistance in tobacco; see, e.g., Chivasa et al. (1997) Plant Cell, 19:547-557. Glyphosate-resistant Palmer amaranth plants having 49 or 63 copies EPSPS were pretreated with 15 millimolar SA. A solution of the four oligonucleotide-size “short” EPSPS dsRNA molecules (described in Example 1) was applied by hand at 1, 5, or 24 hours after treatment with SA, followed 72 hours later by spraying with glyphosate (1682 g acid equivalent per hectare of Roundup® WeatherMAX® brand herbicide).

For data set [2], the system named is detached leaves of glyphosate-resistant Palmer amaranth. As to the kind of experiment: petiole uptake of fluorescently labelled ssDNA oligonucleotide into detached leaves (Example 9). Set-up: species or system Palmer amaranth (Amaranthus palmeri). As to the method:
Petioles of detached leaves of glyphosate-resistant Palmer amaranth were placed in 200 mM sucrose solution with fluorescently labelled ssDNA oligonucleotides (SEQ ID NO:15). Leaf images were taken by Bio-Rad PharosFX imager equipped with a 488 nm laser from 4 h up to 48 h after uptake through petiole. Leaves incubated with 200 mM sucrose alone served as control.

For data set [3], the system named is phytoene desaturase (PDS) gene in tomato (Solanum lycopersicum). As to the kind of experiment: topical PDS dsRNA on tomato, bleaching and stunting (Example 25). The format is in vivo. The conditions noted are these: 2.5 micromolar, 40 microliters per plant. An excerpt:
A 201 nucleotide dsRNA polynucleotide with an anti-sense strand capable of hybridizing to the RNA encoded by the sequence […] […] […] (SEQ ID NO:60) which correspond to the nucleotides at positions 1724-1923 of the mRNA transcribed from the tomato PDS gene sequence (SEQ ID NO:59) was synthesized by RT PCR using oligonucleotide primers with the sequences […] (SEQ ID NO:61, sense primer) and […] (SEQ ID NO:62, anti-sense primer). A 2.5 micromolar dsRNA solution was made with the 201 nucleotide dsRNA polynucleotide (SEQ ID NO:60) in 0.01% SILWET L-77® brand surfactant in 5 millimolar sodium phosphate buffer, pH 6.8.
Three-week old tomato seedlings were treated as follows. Two fully expanded leaves were dipped into a freshly made 0.1% SILWET L-77® brand surfactant solution in double-distilled water for a few seconds. The leaves were allowed to dry for 30 minutes to 1 hour. Each plant was then treated by applying 20 microliters dsRNA solution to the top surface of two SILWET® brand surfactant-treated leaves (total 40 microliters per plant). Control plants were treated with buffer. The plants were kept in a growth chamber for observation. FIG. 30 depicts the systemic silencing of the target gene PDS as evidenced by bleaching of the dsRNA-treated plants 30 days after topical treatment.

Data set [4] relates to glyphosate-resistant Palmer amaranth plants having 16 copies of EPSPS. Put plainly: EPSPS tiling-segment polynucleotides, plant height 11 days after herbicide (Example 21). The class given is in vivo. The conditions noted are these: 0.01 nanomole DNA/plant; glyphosate 840 g ae/ha 48 hours later. An excerpt: Twelve dsRNAs of approximately 250 bp each and having one strand of the dsRNA corresponding to the EPSPS tiled DNA sequences of SEQ ID NOS:41-52 (Table 8) were designed to cover in a tiling fashion the full coding sequence and part of the 5′ and 3′ untranslated regions of the Palmer amaranth EPSPS gene, as depicted in FIG. 25A.
The four oligonucleotide-size “short” EPSPS dsRNA molecules as described in Example 1 and FIG. 1 are located in the tiling segments 2, 3, 4, and 8 respectively, and are shown as light grey bars within those segments. The polynucleotides were synthesized in vitro transcription using a pBR322 vector with the EPSPS polynucleotides inserted at EcoRI and BamHI cloning sites; plasmid DNA was isolated with Qiagen Maxi prep kits and digested with EcoRI and BamHI restriction enzymes. The digested DNA solution was used in the treatment of the plants without further purification. […]

For data set [5], the system named is volunteer glyphosate-resistant corn plants. Put plainly: synthetic Pol III gene dsDNA on volunteer glyphosate-resistant corn in soybean (Example 8). The format is in vivo. The following applies: glyphosate 7 days after dsDNA; 15 days later. From the text: This example illustrates the utility of employing a synthetic Pol III gene in compositions and methods of this invention. With reference to SEQ ID NO:3 and FIG. 2, a synthetic Pol III gene is created using elements from an Arabidopsis thaliana U6 snRNA gene to provide a dsDNA molecule with two copies of RGCCCR elements (bold and underlined), an upstream sequence element (USE) having the sequence “[…]” (SEQ ID NO:4, bold and underlined), a TATA box (bold and underlined), a “G” nucleotide (bold and underlined), anti-sense DNA (italics) corresponding to a bacterial DNA encoding an EPSPS protein (see U.S. Pat. RE39,247) that imparts resistance to glyphosate herbicide when expressed in transgenic corn plants, an “[…]” element (SEQ ID NO:5, bold and underlined) embedded in the anti-sense DNA, an “[…]” element (SEQ ID NO:6, bold and underlined) followed by sense DNA (lower case) and a “TTTTTT” terminator element (SEQ ID NO:7, bold and underlined). A solution of 0.1 wt % SILWET L-77® brand organosilicone surfactant and a solution of multiple copies of the dsDNA molecule are sprayed onto leaves of volunteer glyphosate-resistant corn plants growing in a field of glyphosate-resistant soybean plants, followed 7 days later by treatment with Roundup WeatherMAX® brand glyphosate herbicide. […]

{Alexa488} = Alexa Fluor 488 (Invitrogen) label

Consider `O=C(O)c1ccccc1O` [Salicylic acid], for which, in data set [1], the “improvement of the effects of the dsRNAs and glyphosate activity (plant height)” value is recorded as “No improvement”. Take “ACCCTCCACGACTGCCCTTT (DNA, 5' {Alexa488}, backbone not given here; listed as Amaranthus palmeri) [Anti-sense_PO1_488, ssDNA anti-sense to Amaranthus palmeri EPSPS]”: in data set [2] (after treatment), the “time of release from vascular tissue into cells” value was 8 h. For the same molecule, the “vascular uptake into leaf” value in data set [2] (petiole uptake in 200 mM sucrose, imaged 4 h to 48 h) was “slightly time-dependent vascular uptake”.

B1: 201 nucleotide dsRNA polynucleotide: dsRNA to positions 1724-1923 of tomato PDS mRNA (SEQ ID NO:59) (nucleic acid)
chain: TCGCAGCGACTCAGAAATTATTGATGCAACGATGAAGGAACTAGCAACGCTTTTTCCTGATGAAATTTCAGCAGATCAAAGCAAAGCAAAAATATTGAAGTACCATGTTGTCAAAACTCCGAGGTCTGTTTATAAAACTGTGCCAGGTTGTGAACCCTGTCGGCCTTTACAAAGATCCCCAATAGAGGGGTTTTATTTAG
In the case of B1, in data set [3], the “growth compared to control plants” value was “severely stunted”. Also, in data set [3] (30 days after treatment), the “systemic silencing of PDS (FIG. 30)” value is recorded as “bleaching”.

B2: combination of tiling segments 2, 5, 8, and 11: SEQ ID NOS: 42, 45, 48, 51 applied together (nucleic acid, listed as Amaranthus palmeri)
chain 1: CACCAACCCACTTTCTCTTTGCCCACCAAAACTTTGGTTTGGTAAGAACTAAGCCCTCTTCTTTCCCTTCTCTCTCTTAAAAGCCTAAAATCCACCTAACTTTTTCAGCCAACAAACAACGCCAAATTCAGAGGAAGAATAATGATGGCTCAAGCTACTACCATCAACAATGGTGTCCATACTGGTCAATTGCACCATACTTTACCCAAAACCCAGTTACCCAAATCTTCAAAAACTCTTAATT
chain 2: GAGGGTTGTGGTGGTCTGTTTCCTGTTGGTAAAGATGGAAAGGAAGAGATTCAACTTTTCCTTGGTAATGCAGGAACAGCGATGCGCCCATTGACAGCTGCGGTTGCCGTTGCTGGAGGAAATTCAAGTTATGTGCTTGATGGAGTACCAAGAATGAGGGAGCGCCCCATTGGGGATCTGGTAGCAGGTCTAAAGCAACTTGGTTCAGATGTAGATTGTTTTCTTGGCACAAATTGCCCTCCTGTTCGGG
chain 3: ACAAGCAGTTTACAGGGTGATGTAAAATTTGCCGAAGTTCTTGAGAAGATGGGTTGCAAGGTCACCTGGACAGAGAATAGTGTAACTGTTACTGGACCACCCAGGGATTCATCTGGAAAGAAACATCTGCGTGCTATCGACGTCAACATGAACAAAATGCCAGATGTTGCTATGACTCTTGCAGTTGTTGCCTTGTATGCAGATGGGCCCACCGCCATCAGAGATGTGGCTAGCTGGAGAGTGAAGGAAA
chain 4: TAATTATGAAATTCTTTGTATTATGTTTGTGAGATTTGAAGTAGCTTATAAATTACAATGTACTAAAGTCTAGAAATAAGTTATGTATCTTTTAAATCAATGAGAAATGCATACTTGAAAGGCTTGACCTTGTATTTGTGACCTAAAGAGTACTAACTTTGGAGTTTCCAACTCATTTGTTTATCTCATTTTTTTTTAATTTTTGATTTAAATTGTTTATTTTTATGAGTAATCATGTATCTTTCTTATTCTAACCAAATGTAATACTCCTTC
With B2, the “efficacy (above-ground height 11 days after herbicide; FIGS. 25B, 25C)” value in data set [4] is “greatest efficacy”.

B3: combination of tiling segments 7, 8, and 9: SEQ ID NOS: 47, 48, 49 applied together (nucleic acid, listed as Amaranthus palmeri)
chain 1: TTGAAATGACAATAAAGTTGATGGAACGCTTTGGAGTATCCGTAGAACATAGTGATAGTTGGGACAGGTTCTACATTCGAGGTGGTCAGAAATACAAATCTCCTGGAAAGGCATATGTTGAGGGTGATGCTTCAAGTGCTAGCTACTTCCTAGCCGGAGCCGCCGTCACTGGTGGGACTGTCACTGTCAAGGGTTGTGGAACAAGCAGTTTACAGGGTGATGTAAAATTTGCCGAAGTTCTTGAGAAGAT
chain 2: ACAAGCAGTTTACAGGGTGATGTAAAATTTGCCGAAGTTCTTGAGAAGATGGGTTGCAAGGTCACCTGGACAGAGAATAGTGTAACTGTTACTGGACCACCCAGGGATTCATCTGGAAAGAAACATCTGCGTGCTATCGACGTCAACATGAACAAAATGCCAGATGTTGCTATGACTCTTGCAGTTGTTGCCTTGTATGCAGATGGGCCCACCGCCATCAGAGATGTGGCTAGCTGGAGAGTGAAGGAAA
chain 3: AGATGGGCCCACCGCCATCAGAGATGTGGCTAGCTGGAGAGTGAAGGAAACCGAACGGATGATTGCCATTTGCACAGAACTGAGAAAGCTTGGGGCAACAGTTGAGGAAGGATCTGATTACTGTGTGATCACTCCGCCTGAAAAGCTAAACCCCACCGCCATTGAAACTTATGACGATCACCGAATGGCCATGGCATTCTCTCTTGCTGCCTGTGCAGATGTTCCCGTCACTATCCTTGATCCGGGATGC
For the molecule B3, in data set [4], the “efficacy (above-ground height 11 days after herbicide; FIGS. 25B, 25C)” value was “greatest efficacy”.

B4: synthetic Pol III gene: dsDNA from Arabidopsis U6 snRNA gene elements with anti-sense and sense DNA of bacterial EPSPS (nucleic acid)
DNA: GGCCCATAGGCCTTTTTCTAAAATAGGCCCATTTAAGCTATTAACAATCTTCAAAAGTACCACATCGCTTAGGTAAAGAAAGCAGCTGAGTTTATATATGGTTAGAGACGAAGTAGTGATTGCGACGAGCGACGTCTCGCCCTCATCGCAATCCACGCCATTGAGCTTGAGGCCATTGGCGACGGCCGAGAGGCGGTCGCTTAAGATTAGCATGTCCTTGACGCGGAGTTCTTCCAGACCGTTCATCACGGTCGCCCCTTCCGCGAAGGCGGCGGCGACAGCGAGAATCGGATATTCGTCGATCATCGAAGGCGCGCGGTCTTCCGGCACCGTGACGCATAAACACGGTGCCGGAAGACCGCGCGCCTTCGATGATCGACGAATATCCGATTCTCGCTGTCGCCGCCGCCTTCGCGGAAGGGGCGACCGTGATGAACGGTCTGGAAGAACTCCGCGTCAAGGAAAGCGACCGCCTCTCGGCCGTCGCCAATGGCCTCAAGCTCAATGGCGTGGATTGCGATGAGGGCGAGACGTCGCTCGTCGTTTTTTTTGGCAAAAA
As to B4, in data set [5], the “condition of soybean crop plants” value is listed as “thriving” and the “condition of volunteer corn plants” value was “dead”.
